Patent publication US20110256132A1 (published 2011)
* marks the point of attachment. Biotin = O=C1N[C@H]2[C@H](CS[C@H]2CCCCC(=O)*)N1

Assays:
[1] = molecular target: T1, mature myostatin (recombinant, dimeric) (mouse polyprotein used for in-house …, UniProt O08689 268-376); assay: BIAcore T100, antibody captured on anti-mouse IgG (C1 chip), myostatin analyte, all curves Bivalent model
T1 construct: also called GDF-8; recombinant myostatin
T1 sequence: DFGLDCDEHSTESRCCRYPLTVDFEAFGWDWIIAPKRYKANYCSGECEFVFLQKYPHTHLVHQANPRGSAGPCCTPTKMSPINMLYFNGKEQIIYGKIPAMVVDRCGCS
Method: (§1) The affinity of 10B3 mouse parental and 10B3C for recombinant myostatin was assessed by BIAcore™ (surface plasmon resonance) analysis. Analysis was carried out by the use of a capture surface: anti-mouse IgG was coupled to a C1 chip by primary amine coupling for 10B3 mouse parental; and a protein A surface was created on a C1 chip by primary amine coupling for 10B3 chimera.
(§2) After capture, recombinant myostatin was passed over the surface at 64 nM, 16 nM, 4 nM, 1 nM, 0.25 nM and 0.0625 nM, with a buffer injection (i.e. 0 nM) used for double referencing. There was a regeneration step between each analyte injection, after which the new antibody capture event occurred before the next injection of myostatin. The data was analysed using both the 1:1 model and the Bivalent model inherent to the T100 machines analysis software (see Table 6). Both capture surfaces could be regenerated using 100 mM phosphoric acid, the work was carried out using HBS-EP as the running buffer and using 25° C. as the analysis temperature.

[2] = molecular target: T1, mature myostatin (recombinant, dimeric); assay: ELISA: inhibition of 2 nM biotinylated myostatin binding to plate-coated ActRIIb, mean IC50 (= 0.88 nM by paragraph 327)
Method: Recombinant soluble ActRIIb (R&D Systems 339-RBB) was coated in wells of an ELISA plate at 1 μg/ml in carbonate buffer overnight at 4° C. Plates were blocked (see Block solution above at 2.3) and washed following standard ELISA protocols. In parallel, 2 nM biotinylated myostatin (in-house, as described in 1.1, biotinylated material) was pre-incubated with an antibody dilution series consisting of 10B3, 10B3C, and a negative control (IgG1 isotype control) for 2 hours at 37° C. The biotinylated myostatin:antibody reactions were then added to the ActRIIb coated plate for 1 hour at 37° C. Standard wash procedures were followed prior to addition of 1:1000 diluted streptavidin-HRP conjugate (Dako P0397) and a further 37° C. incubation for 1 hour. Plates were again washed and assayed at absorbance 490 nm following OPD substrate (Sigma) and acid stop solution treatment Inhibition curves and IC50 values for the inhibition of myostatin activity are shown in FIG. 5 and Table 8 respectively.

[3] = molecular target: T2, human myostatin pro-peptide dimer (human, UniProt O14793 25-266); assay: ELISA, plate-coated antigen
T2 sequence: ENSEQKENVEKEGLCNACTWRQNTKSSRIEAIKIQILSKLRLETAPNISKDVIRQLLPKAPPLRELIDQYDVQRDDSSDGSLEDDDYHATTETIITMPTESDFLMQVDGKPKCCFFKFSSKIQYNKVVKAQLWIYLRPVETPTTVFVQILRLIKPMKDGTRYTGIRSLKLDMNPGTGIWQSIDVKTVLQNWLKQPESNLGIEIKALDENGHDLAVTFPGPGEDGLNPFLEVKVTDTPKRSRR
Method: The myostatin antigens were coated onto wells of an EIA/RIA plate (Costar) at 100 ng/well at 4° C. overnight in PBS, prior to blocking (PBS, 3% BSA) for 30 minutes at room temperature. Plates were washed (PBS, 1% BSA and 0.1% Tween20), prior to the addition of a dilution series of 10B3 in wash buffer and incubation for 2 hours at room temperature. […] A final wash step preceded addition of TMB substrate and colorimetric change which was stopped with Sulphuric acid and plates read at 450 nm.

[4] = molecular target: T3, artificial myostatin linear peptide 13 (SMILES …); assay: SRU BIND reader, peptides captured on streptavidin biosensor plate
T3 construct: also called Peptide No 13
T3 peptide: Biotin-SGSGEAFGWDWIIAPKRY-NH2
Method: (§3) Work was carried out on an SRU BIND reader (SRU Biosystems). A streptavidin biosensor plate was washed, a baseline reading taken, and biotinylated peptides captured onto the streptavidin coated biosensor plate. The plate was washed again, and a new baseline reading taken, antibody was then added and binding monitored.

[5] = molecular target: T4, artificial myostatin linear peptide 19 (cysteine pairing not given here); assay: as above
T4 construct: also called Peptide No 19
T4 peptide: Biotin-SGSGRYKANYCSGECEFV-NH2
Method: as §3

[6] = molecular target: T5, artificial myostatin linear peptide 41 (SMILES …); assay: as above
T5 construct: also called Peptide No 41
T5 peptide: Biotin-SGSGPINMLYFNGKEQII-NH2
Method: as §3

[7] = molecular target: T6, artificial myostatin linear peptide 29 (SMILES …); assay: as above
T6 construct: also called Peptide No 29
T6 peptide: Biotin-SGSGHTHLVHQANPRGSA-NH2
Method: as §3

[8] = molecular target: T7, artificial myostatin linear peptide 11 (SMILES …); assay: as above
T7 construct: also called Peptide No 11
T7 peptide: Biotin-SGSGTVDFEAFGWDWIIA-NH2
Method: as §3

[9] = molecular target: T8, artificial myostatin linear peptide 7 (cysteine pairing not given here); assay: as above
T8 construct: also called Peptide No 7
T8 peptide: Biotin-SGSGSRCCRYPLTVDFEA-NH2
Method: as §3

[10] = molecular target: T1, mature myostatin (recombinant, dimeric); assay: BIAcore T100, antibody captured on anti-mouse IgG (C1 chip), myostatin analyte, all curves 1:1 model
Method: as §1, §2

[11] = molecular target: T1, mature myostatin (recombinant, dimeric); assay: cell-based or functional assay
[12] = molecular target: T1, mature myostatin (recombinant, dimeric); assay: FORTEbio bio-layer interferometry, myostatin amine-coupled to sensor, 20 nM antibody, 1:1 fit
Method: The affinity of 10B3 mouse parental and H2L2-C91S developability variant for recombinant myostatin was also assessed by FORTEbio™ (bio-layer inferometry) analysis. FORTEbio™ analyses were carried out by antigen capture. Myostatin (in-house, see above at 1.1) was coupled onto amine reactive biosensors by primary amine coupling in accordance with the manufacturer's instructions. Antibodies were then captured onto this surface at 20 nM concentrations. The data was analysed using the evaluation software inherent in the machine and the data analysed using 1:1 fit (see Table 16). Due to the limited number of myostatin molecules bound to the sensor surface and the low antibody concentration, avidity effects are reduced, enabling a more accurate measure of affinity compared to the Biacore analyses. […] However, due to the nature of the binding of the antibodies to myostatin, these values are mainly used for ranking purposes, and the affinity may not be representative of the affinity in vivo.

B1: mouse monoclonal antibody 10B3 (antibody, V domains shown)
VH: EVQLQQSGPELVKPGASVKISCKASGYSFTGYFMHWVKQSHGNILDWIGNIYPYNGVSNYNQRFKAKATLTVDKSSSTAYMELRSLTSEDSAVYYCARRYYYGTGPADWYFDVWGTGTTVTVSS
VL: DIKMTQSPSSMYASLRERVTITCKASQDINSYLSWFQQKPGKSPKTLIYRANRLVDGVPSRFSGSGSGQDYSLTISSLEYEDMGIYYCLQCDEFPLTFGAGTKLELK
notes: Mouse IgG2a/kappa from hybridoma; also called 10B3 mouse parental; 10B3 parental
- Kd [1]: 5.9 nM
- IC50 [2]: 0.132 µg/mL
- binding result [3]: no binding
- binding result [4]: no binding
- binding result [5]: no binding
- binding result [6]: no binding
- binding result [7]: no binding
- binding result [8]: no binding
- binding result [9]: no binding
- Kd [10]: 1 nM
- Mean IC50, A204 in vitro activity assay [11]: 8.5 nM
- Kd [12]: 0.31 nM
- koff [12]: 0.000131 s⁻¹
- kon [12]: 424000 M⁻¹ s⁻¹
